Experimental data from the Human Domainome abundance scans (Beltran et al. 2025).
± gives the uncertainty stated by the source.

B1: Neutrophil cytosol factor 2, residues 456 to 514; numbered along this chain, P19878 (parent)
chain: LKKGSQVEALFSYEATQPEDLEFQEGDIILVLSKVNEEWLEGECKGKVGIFPKVFVEDC

Variants of: B1
Assay: abundance fitness (aPCA) (normalised: wild type 0, dead -1); higher = more abundant; growth selection in yeast, the domain comes from the species named
Details: Homo sapiens

Variant	abundance fitness
D27Q	-0.212 ± 0.27
P18V	-0.648 ± 0.17
E43H	-0.314 ± 0.16
T16A	-0.475 ± 0.16
V54K	0.663 ± 0.15
L40D	-0.544 ± 0.17
D20M	0.06 ± 0.17
P52A	-0.305 ± 0.13
D58G	0.392 ± 0.13
E14N	0.074 ± 0.11
C44T	-0.467 ± 0.17
S5G	-1.17 ± 0.48
E22T	-0.24 ± 0.24
K45Q	-0.577 ± 0.5
Q17H	-0.123 ± 0.13
Q6S	-0.667 ± 0.27
F51S	-0.328 ± 0.096
S5T	-0.037 ± 0.23
E41G	-0.157 ± 0.1
E19W	-0.166 ± 0.17
E38V	-0.479 ± 0.11

Variant	abundance fitness
Y13T	-0.644 ± 0.14
S33I	-0.34 ± 0.15
V48W	-0.901 ± 0.49
L40F	-0.548 ± 0.14
G46C	-0.479 ± 0.2
L30A	-0.284 ± 0.13
E37H	-0.328 ± 0.14
I28P	0.054 ± 0.18
G46S	-0.928 ± 0.18
L21S	-0.522 ± 0.12
Y13E	-0.499 ± 0.34
I50G	-0.347 ± 0.12
F55N	-0.522 ± 0.14
E22A	0.103 ± 0.11
G46L	-0.226 ± 0.12
G42L	-0.569 ± 0.14
E43M	-0.009 ± 0.17
V7F	-0.414 ± 0.43
C44I	-0.705 ± 0.14
E8Q	0.472 ± 0.15
G42F	-0.509 ± 0.12

Variant	abundance fitness
Q24N	-0.002 ± 0.11
E41T	-0.527 ± 0.17
E41Q	0.238 ± 0.3
L32D	-0.054 ± 0.095
I28V	-0.264 ± 0.098
N36V	-0.686 ± 0.18
L21G	-0.369 ± 0.094
G46P	-0.747 ± 0.47
D20C	0.014 ± 0.085
I29V	-0.795 ± 0.17
S12V	-0.816 ± 0.21
I29T	-0.497 ± 0.16
Q24C	-0.197 ± 0.1
F55V	0.271 ± 0.077
E19V	-0.443 ± 0.12
Q17W	-0.753 ± 0.25
S33Q	-0.111 ± 0.27
Q24I	-0.688 ± 0.17
V56C	-0.52 ± 0.16
I50R	-0.125 ± 0.11
K34P	-0.853 ± 0.4

Variant	abundance fitness
K53H	-0.928 ± 0.24
G4P	-0.208 ± 0.25
L40T	-0.749 ± 0.21
L21T	-0.392 ± 0.15
I29Q	-0.783 ± 0.38
I50F	-0.389 ± 0.14
F23S	-0.655 ± 0.13
D27L	-0.28 ± 0.11
Q6W	0.367 ± 0.16
I50M	-0.621 ± 0.31
L40E	-0.742 ± 0.47
L40W	-0.277 ± 0.2
D58E	0.091 ± 0.21
L40N	-0.945 ± 0.21
W39M	0.036 ± 0.26
W39A	-0.643 ± 0.17
I28L	-0.284 ± 0.1
D58T	0.133 ± 0.16
F11L	-0.314 ± 0.15
K2P	0.067 ± 0.21
